Test results from PMC2965233.

T1: ADF-1 (D. funebris) (Drosophila funebris, UniProt E2DD98 1-262)
T1 sequence: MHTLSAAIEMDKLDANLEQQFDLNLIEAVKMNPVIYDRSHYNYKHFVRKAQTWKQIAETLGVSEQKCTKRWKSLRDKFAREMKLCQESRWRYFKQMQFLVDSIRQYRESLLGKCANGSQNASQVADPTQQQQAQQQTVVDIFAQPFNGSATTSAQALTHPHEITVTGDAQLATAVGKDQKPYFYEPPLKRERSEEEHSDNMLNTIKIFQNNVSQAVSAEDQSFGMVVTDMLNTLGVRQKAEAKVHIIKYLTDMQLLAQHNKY

T2: ADF-1 (D. melanogaster) (Drosophila melanogaster, UniProt P05552 1-262)
T2 sequence: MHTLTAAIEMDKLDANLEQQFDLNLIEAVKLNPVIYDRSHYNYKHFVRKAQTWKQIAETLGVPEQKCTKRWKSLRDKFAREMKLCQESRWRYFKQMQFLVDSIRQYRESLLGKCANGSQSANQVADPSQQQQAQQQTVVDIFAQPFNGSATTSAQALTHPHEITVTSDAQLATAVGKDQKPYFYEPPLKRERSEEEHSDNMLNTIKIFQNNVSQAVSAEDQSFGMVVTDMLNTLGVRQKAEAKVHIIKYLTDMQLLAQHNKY


Key:
ADF-1 (D. funebris) = molecular target: T1, ADF-1 (D. funebris); assay: EMSA
ADF-1 (D. melanogaster) = molecular target: T2, ADF-1 (D. melanogaster); assay: EMSA

Binder	Kd (ADF-1 (D. funebris)) [µM]	Kd (ADF-1 (D. melanogaster)) [µM]
Oligo 4 (dsDNA) DNA 1: TCGCTGTCTCAGTCGACGCTATTGAT DNA 2: ATCAATAGCGTCGACTGAGACAGCGA	1.86	1.63
Oligo 3 (dsDNA) DNA 1: TCAATGTCGCCGTCGCTGTCTCAGTCG DNA 2: CGACTGAGACAGCGACGGCGACATTGA	28.3	27.5
Oligo 2 (dsDNA) DNA 1: ATCGACGTCAACGGCAGCGTTCACAT DNA 2: ATGTGAACGCTGCCGTTGACGTCGAT	5.05	4.07
Oligo 1 (dsDNA) DNA 1: ATCGACGTCGGCGTCGACATCGTGA DNA 2: TCACGATGTCGACGCCGACGTCGAT	1.95	1.98
